Experimental findings from patent US20240383982A1 (Genmab, published 2024) are described below.

In assay [1] the target is T1, human B7H4, full length, on cells (human, UniProt Q7Z7D3 25-282).
T1 construct: Uniprot Q7Z7D3; Used for transfected HEK cells and for the B7H4-expressing human tumor cell lines (endogenous B7H4); also called VTCN1
T1 sequence: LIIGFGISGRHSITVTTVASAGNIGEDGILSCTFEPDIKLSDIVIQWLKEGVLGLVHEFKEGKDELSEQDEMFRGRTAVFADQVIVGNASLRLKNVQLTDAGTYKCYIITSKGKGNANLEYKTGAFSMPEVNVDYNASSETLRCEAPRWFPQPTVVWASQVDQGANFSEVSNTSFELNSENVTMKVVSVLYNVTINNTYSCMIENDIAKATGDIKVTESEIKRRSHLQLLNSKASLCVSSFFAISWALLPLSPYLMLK
Put plainly: flow cytometry on MDA-MB-468 tumor cells [MDA-MB-468 right panel]. As to the method: Cells (3×10⁴ cells/well) were incubated in polystyrene 96-well round-bottom plates (Greiner bio-one, cat. no. 650180) with serial dilutions of antibodies (ranging from 0.000458 to 30 μg/mL in 4-fold dilution steps) in 100 μL PBS/0.1% BSA/0.02% azide (staining buffer) at 4° C. for 30 min. Experiments were performed in technical duplicate. After washing twice in staining buffer, cells were incubated in 50 μL secondary antibody at 4° C. for 30 min. As a secondary antibody, R-Phycoerythrin (PE)-conjugated goat-anti-human IgG F(ab′)₂ (1:500 in FACS buffer; Jackson ImmunoResearch Laboratories, Inc., West Grove, PA, cat. no. 109-116-098), was used. Cells were washed twice in staining buffer, re-suspended in 30 μL FACS buffer containing Topro-3 (1:10,000 dilution) and analyzed on an iQue Screener (Intellicyt Corporation, USA). Binding curves were analyzed using non-linear regression (sigmoidal dose-response with variable slope) using GraphPad Prism V7.02 software (GraphPad Software, San Diego, CA, USA).
Binding was analyzed by flow cytometry as described above.

A further assay has as its target T2, B7H4-IgV/B7H3-IgC.
T2 construct: also called chimeric molecule with the IgV domain of B7H4 and the IgC domain of B7H3
T2 full-length chimeric protein on cells: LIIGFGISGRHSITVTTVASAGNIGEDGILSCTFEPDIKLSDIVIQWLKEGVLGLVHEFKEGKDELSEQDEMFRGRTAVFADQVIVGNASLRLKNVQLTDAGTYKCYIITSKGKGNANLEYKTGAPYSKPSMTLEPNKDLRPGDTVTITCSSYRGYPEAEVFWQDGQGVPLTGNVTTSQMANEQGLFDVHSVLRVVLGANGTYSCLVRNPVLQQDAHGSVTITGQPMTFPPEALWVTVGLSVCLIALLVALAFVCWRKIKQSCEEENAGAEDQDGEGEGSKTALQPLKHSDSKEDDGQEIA
Put plainly: flow cytometry, HEK cells transiently transfected with B7H4-IgV/B7H3-IgC, PE anti-human IgG F(ab')2 [panel B7H4-IgV/B7H3-IgC]. (Flow cytometry measures light scatter and fluorescence of single cells or particles in a stream.)

Assay [2] concerns the target T3, recombinant hIgG1 Fc-tagged cynomolgus monkey B7H4 (Creative BioMart, cat. no. VTCN1-1517R) (cynomolgus monkey, UniProt Q7Z7D3 25-259 (human entry)).
T3 construct: Bought protein; also called cynomolgus monkey B7H4 extracellular domain
T3 sequence: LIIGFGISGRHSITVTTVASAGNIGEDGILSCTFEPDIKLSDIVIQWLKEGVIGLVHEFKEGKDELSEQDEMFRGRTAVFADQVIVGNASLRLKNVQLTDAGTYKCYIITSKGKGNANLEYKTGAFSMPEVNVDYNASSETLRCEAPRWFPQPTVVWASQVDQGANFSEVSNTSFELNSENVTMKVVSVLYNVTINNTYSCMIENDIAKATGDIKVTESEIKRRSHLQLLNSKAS
Put plainly: BLI (Octet HTX); Fc-tagged cynomolgus B7H4 coupled to AR2G sensor, bispecific antibody in solution (monovalent B7H4 binding); 2nd experiment (R^2 0.97, below the 0.98 threshold). As to the method:
(§1) In addition, the affinity of for cynomolgus monkey B7H4 was determined by BLI. […] Amine Reactive 2nd Generation (AR2G) biosensors (FortéBio, cat. no. 18-5092) were activated by reaction with 20 mM EDC (N-(3-Dimethylaminopropyl)-N′-ethylcarbodiimide hydrochloride) (FortéBio, cat. no. 18-1033) and 10 mM s-NHS (N-hydroxysulfosuccinimide sodium salt) (FortéBio, cat. no. 18-1067) for 300 s. The activated sensors were loaded with 10 μg/mL recombinant hIgG1 Fc-tagged cynomolgus monkey B7H4 (Creative BioMart, cat. no. VTCN1-1517R) in 10 mM Sodium Acetate pH 4.0 (FortéBio, cat. no. 18-1068) for 600 s and quenched with 1 M ethanolamine pH 8.5 (FortéBio, cat. no. 18-1071) for 300 s. […] A molecular mass of 150 kDa of the antibodies was used for calculations. For each antibody a reference sensor was used, which was incubated with Sample Diluent instead of antibody.
(§2) Data were acquired using Data Acquisition Software v9.0.0.49d (FortéBio) and analyzed with Data Analysis Software v9.0.0.12 (FortéBio). Data traces were corrected per antibody by subtraction of the reference sensor. The Y-axis was aligned to the last 10 s of the baseline, Interstep Correction alignment to dissociation and Savitzky-Golay filtering were applied. Data traces with a response<0.05 nm were excluded from analysis. […]
In general terms: In BLI a coated tip is dipped into the sample, and binding shifts an interference pattern.

The target of assay [3] is T3, recombinant hIgG1 Fc-tagged cynomolgus …. Put plainly: BLI (Octet HTX); Fc-tagged cynomolgus B7H4 coupled to AR2G sensor, bispecific antibody in solution (monovalent B7H4 binding); 2nd experiment (R^2 0.97, below the 0.98 threshold); R^2 0.97, below the 0.98 quality threshold (footnote b). As to the method:
as §1, §2

Protocol for B7H4-IgV/B7H3-IgC: After washing twice in FACS buffer, cells were incubated with secondary antibody at 4° C. for 30 min. […] Next, cells were washed twice in FACS buffer, re-suspended in 20 μL FACS buffer and analyzed on an iQue Screener (Intellicyt Corporation, USA).
Further experiments were conducted to study the B7H4 domain specificity of the B7H4 antibodies in more detail, by analysis of full dose-response curves.

B1: bsIgG1-huCD3-H101G-FEALxB7H4-C5-FEAR (bispecific antibody)
heavy 1: not shown
light 1: not shown
heavy 2: QLQLQESGPGLVKPSETLSLTCTVSGGSIKSGSYYWGWIRQPPGKGLEWIGNIYYSGSTYYNPSLRSRVTISVDTSKNQFSLKLSSVTAADTAVYYCAREGSYPNQFDPWGQGTLVTVSSASTKGPSVFPLAPSSKSTSGGTAALGCLVKDYFPEPVTVSWNSGALTSGVHTFPAVLQSSGLYSLSSVVTVPSSSLGTQTYICNVNHKPSNTKVDKRVEPKSCDKTHTCPPCPAPEFEGGPSVFLFPPKPKDTLMISRTPEVTCVVVAVSHEDPEVKFNWYVDGVEVHNAKTKPREEQYNSTYRVVSVLTVLHQDWLNGKEYKCKVSNKALPAPIEKTISKAKGQPREPQVYTLPPSREEMTKNQVSLTCLVKGFYPSDIAVEWESNGQPENNYKTTPPVLDSDGSFFLYSRLTVDKSRWQQGNVFSCSVMHEALHNHYTQKSLSLSPGK
light 2: not shown
notes: also called bslgG1-huCD3-H101G-FEALxB7H4-C5-FEAR
One may read the EC50 (read off the curve) as the concentration at which the effect is half-maximal. Usually koff stands for the first-order rate constant of dissociation. What is called kon is a measure of how fast the partners come together. One may read the Kd as a measure of binding affinity in units of concentration. Regarding B1, the “EC50 (read off the curve)” value in assay [1] is roughly 0.6 µg/mL. The 50% effective concentration (EC50 (read off the curve)) with B7H4-IgV/B7H3-IgC is roughly 1 µg/mL. Besides, in assay [2], the koff is 0.0025 s⁻¹ and the kon turned out to be 420000 M⁻¹ s⁻¹. In addition, the equilibrium dissociation constant (Kd) in assay [3] came to 6 nM.
